In article PMC314469, “Protein Interaction Networks by Proteome Peptide Scanning” (PLoS Biology, 2004) one finds normalised SPOT signal, Boehringer light units (BLU); mean over the file's lines of this peptide data, which are given here for 14 molecules.

Assay in all cases: SPOT array
The target of test [1] is Sho1 SH3 (SHO1_YEAST), P40073.
The target in test [2] is T1, Myo5 SH3 (MYO5_YEAST), Q04439.
T1 chain: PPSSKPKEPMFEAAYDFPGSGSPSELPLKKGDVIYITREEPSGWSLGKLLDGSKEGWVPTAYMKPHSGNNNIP

The target of test [3] is T2, Boi2 SH3 (BOI2_YEAST), P39969.
T2 chain: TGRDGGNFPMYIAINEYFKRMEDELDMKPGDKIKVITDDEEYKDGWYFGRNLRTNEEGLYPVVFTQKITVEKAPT

In test [4] the target is T3, Rvs167 SH3 (RV167_YEAST), P39743.
T3 chain: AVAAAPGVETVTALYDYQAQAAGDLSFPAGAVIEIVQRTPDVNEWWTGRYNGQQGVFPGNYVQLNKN

Test [5] addresses T4, Yhr016c SH3 (YSC84_YEAST), P32793.
T4 chain: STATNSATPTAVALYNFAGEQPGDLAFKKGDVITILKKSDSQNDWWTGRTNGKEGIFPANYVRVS

In test [6] the target is T5, Boi1 SH3 (BOI1_YEAST), P38041.
T5 chain: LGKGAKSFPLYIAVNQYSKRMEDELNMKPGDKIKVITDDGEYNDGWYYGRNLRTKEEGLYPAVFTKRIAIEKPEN

In test [7] the target is T6, Yfr024 SH3 (LSB3_YEAST), P43603.
T6 chain: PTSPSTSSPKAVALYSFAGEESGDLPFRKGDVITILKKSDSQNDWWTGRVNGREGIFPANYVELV

Sequence of Sho1 SH3 (SHO1_YEAST), P40073 (P40073 295-366): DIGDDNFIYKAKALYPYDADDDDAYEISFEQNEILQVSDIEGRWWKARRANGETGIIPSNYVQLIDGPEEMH

B1: YPL269W 616-629 (peptide)
chain: RRRTRLRPPTPLSQ
On to B1, for which the normalised SPOT signal, Boehringer light units (BLU); mean over the file's lines of this peptide in test [1] amounted to 76.1; in test [2] it was 1510; in test [3], 41.1; in test [4], 423; in test [5] it was 104; in test [6], 137. For the same molecule, the normalised SPOT signal, Boehringer light units (BLU); mean over the file's lines of this peptide in test [7] was 819.

B2: YHR017W 94-107 (peptide)
chain: RTFFKLPPNLPEAE
For the molecule B2, the normalised SPOT signal, Boehringer light units (BLU); mean over the file's lines of this peptide was found to be 154 in test [1]; 2610 in test [2]; 5.1 in test [3]; 204 in test [4]; 32.8 in test [5]; 220 in test [6]. Moreover, the normalised SPOT signal, Boehringer light units (BLU); mean over the file's lines of this peptide in test [7] stood at 1050.

B3: YOR196C 194-207 (peptide)
chain: RTPSKPDPMEPENT
As to B3, the normalised SPOT signal, Boehringer light units (BLU); mean over the file's lines of this peptide came out at 18 in test [1]; 187 in test [2]; 35.4 in test [3]; 19.3 in test [4]; 21.1 in test [5]; 28.1 in test [6]. In test [7], this molecule came in with a normalised SPOT signal, Boehringer light units (BLU); mean over the file's lines of this peptide of 78.9.

B4: YER006W 41-54 (peptide)
chain: RSRSKKDPGIPSNF
As to B4, the normalised SPOT signal, Boehringer light units (BLU); mean over the file's lines of this peptide in test [1] is 118; in test [2] it was 800; in test [3] it was 6.9; in test [4], 159; in test [5], 52.3; in test [6] it was 585. In test [7], this molecule returned a normalised SPOT signal, Boehringer light units (BLU); mean over the file's lines of this peptide of 360.

B5: YOR090C 334-347 (peptide)
chain: RRIRKEHPGEPNVI
For B5, the normalised SPOT signal, Boehringer light units (BLU); mean over the file's lines of this peptide was found to be 123 in test [1]; 308 in test [2]; 9 in test [3]; 106 in test [4]; 60.5 in test [5]; 920 in test [6]. For the same molecule, the normalised SPOT signal, Boehringer light units (BLU); mean over the file's lines of this peptide in test [7] is 570.

B6: YMR004W 186-199 (peptide)
chain: RYPFRMIPELPPKR
B6: the normalised SPOT signal, Boehringer light units (BLU); mean over the file's lines of this peptide in test [1] was 2730; in test [2] it was 3570; in test [3], 552; in test [4], 14800; in test [5] it was 7330; in test [6] it was 14100. The same molecule registered a normalised SPOT signal, Boehringer light units (BLU); mean over the file's lines of this peptide in test [7] of 18600.

B7: YOR004W 127-140 (peptide)
chain: RRKLRTVPGVPLIH
For the molecule B7, the normalised SPOT signal, Boehringer light units (BLU); mean over the file's lines of this peptide in test [1] turned out to be 85.3; in test [2] it was 2010; in test [3], 20.1; in test [4], 6330; in test [5], 772; in test [6] it was 89. The molecule also had a normalised SPOT signal, Boehringer light units (BLU); mean over the file's lines of this peptide in test [7] of 2640.

B8: YFR019W 1795-1808 (peptide)
chain: SDNSKSEPLPPVIT
Regarding B8, the normalised SPOT signal, Boehringer light units (BLU); mean over the file's lines of this peptide in test [1] is 23.8; in test [2] it was 130; in test [3] it was 1.4; in test [4], 54.5; in test [5], 32.7; in test [6], 0. The normalised SPOT signal, Boehringer light units (BLU); mean over the file's lines of this peptide in test [7] worked out at 21.6.

B9: YGR056W 183-196 (peptide)
chain: RMQQKNSPAFPTHS
In the case of B9, the normalised SPOT signal, Boehringer light units (BLU); mean over the file's lines of this peptide in test [1] came out at 1220; in test [2], 1280; in test [3], 227; in test [4], 1150; in test [5], 1510; in test [6] it was 4830. In test [7], this molecule came in with a normalised SPOT signal, Boehringer light units (BLU); mean over the file's lines of this peptide of 4550.

B10: YER114C 841-854 (peptide)
chain: RYSFKLLPPQPGSK
With B10, the normalised SPOT signal, Boehringer light units (BLU); mean over the file's lines of this peptide in test [1] is 15500; in test [2] it was 190; in test [3] it was 47.8; in test [4] it was 84; in test [5] it was 23.5; in test [6] it was 796. Also, the normalised SPOT signal, Boehringer light units (BLU); mean over the file's lines of this peptide in test [7] stood at 352.

B11: YLR072W 370-383 (peptide)
chain: RPVYRLKPNAPFQY
Consider B11, for which the normalised SPOT signal, Boehringer light units (BLU); mean over the file's lines of this peptide in test [1] was 60.1; in test [2], 210; in test [3] it was 78.2; in test [4] it was 148; in test [5] it was 129; in test [6], 72. This molecule came in with a normalised SPOT signal, Boehringer light units (BLU); mean over the file's lines of this peptide in test [7] of 583.

B12: YNL165W 14-27 (peptide)
chain: RRHNRQHPPYPHSG
As to B12, the normalised SPOT signal, Boehringer light units (BLU); mean over the file's lines of this peptide in test [1] was 65.3; in test [2] it was 1290; in test [3], 16; in test [4], 51.8; in test [5], 43.4; in test [6] it was 299. Moreover, the normalised SPOT signal, Boehringer light units (BLU); mean over the file's lines of this peptide in test [7] was determined as 667.

B13: YHL007C 465-478 (peptide)
chain: SANGKFIPSRPAPK
Take B13: the normalised SPOT signal, Boehringer light units (BLU); mean over the file's lines of this peptide came out at 75.2 in test [1]; 6760 in test [2]; 5.4 in test [3]; 147 in test [4]; 14.7 in test [5]; 128 in test [6]. The molecule also returned a normalised SPOT signal, Boehringer light units (BLU); mean over the file's lines of this peptide in test [7] of 539.

B14: YOR127W 138-151 (peptide)
chain: RRLKKNLPSLPTPV
Regarding B14, the normalised SPOT signal, Boehringer light units (BLU); mean over the file's lines of this peptide is 27000 in test [1]; 824 in test [2]; 41.1 in test [3]; 280 in test [4]; 50.6 in test [5]; 1760 in test [6]. This molecule also yielded a normalised SPOT signal, Boehringer light units (BLU); mean over the file's lines of this peptide in test [7] of 395.
